Data reported in publication doi:10.1101/2023.09.12.557426 (bioRxiv, 2023).
One block for each binder: values may come before it.

Experiments:
xlNup93(168-820) = xlNup93(168-820) (Xenopus laevis, UniProt Q7ZX96); test: cryo-EM structure
crystal structure = biological target: the molecule itself; test: crystal structure
[1] = biological target: His14-NEDD8 tagged APD of xtNup98(715-866) (Xenopus tropicalis, UniProt A0A1B8XZT4); test: pull-down
[2] = biological target: T1, Xenopus Nup98 from egg extract (Xenopus laevis, endogenous in egg …, UniProt A0A8J1MFV7); test: pull-down
[3] = biological target: T2, human Nup98 of HeLa cells (human (endogenous in HeLa), UniProt P52948); test: pull-down
[4] = biological target: Xenopus Nup93, target protein of the BLI measurement (Xenopus, UniProt Q7ZX96); test: BLI
[5] = biological target: Xenopus Nup93 from egg extract (Xenopus laevis (endogenous in egg …, UniProt Q7ZX96)); test: pull-down
[6] = biological target: human Nup93 from HeLa lysate (human (endogenous in HeLa), UniProt Q8N1F7); test: pull-down
[7] = biological target: T1, Xenopus Nup98 from egg extract; test: immunostaining of cells or tissue
[8] = biological target: T2, human Nup98 of HeLa cells; test: immunostaining of cells or tissue
[9] = biological target: hNup35(173-248, the RRM domain) (human, UniProt Q8NFH5); test: crystal structure
[10] = biological target: human Nup35 in NPCs of HeLa cells (Homo sapiens (HeLa), UniProt Q8NFH5); test: immunostaining of cells or tissue
[11] = biological target: Xenopus Nup35 from egg extract, in newly assembled NPCs (Xenopus laevis, UniProt I1VEB0); test: immunostaining of cells or tissue

Sequence of xlNup93(168-820) (Q7ZX96 168-820): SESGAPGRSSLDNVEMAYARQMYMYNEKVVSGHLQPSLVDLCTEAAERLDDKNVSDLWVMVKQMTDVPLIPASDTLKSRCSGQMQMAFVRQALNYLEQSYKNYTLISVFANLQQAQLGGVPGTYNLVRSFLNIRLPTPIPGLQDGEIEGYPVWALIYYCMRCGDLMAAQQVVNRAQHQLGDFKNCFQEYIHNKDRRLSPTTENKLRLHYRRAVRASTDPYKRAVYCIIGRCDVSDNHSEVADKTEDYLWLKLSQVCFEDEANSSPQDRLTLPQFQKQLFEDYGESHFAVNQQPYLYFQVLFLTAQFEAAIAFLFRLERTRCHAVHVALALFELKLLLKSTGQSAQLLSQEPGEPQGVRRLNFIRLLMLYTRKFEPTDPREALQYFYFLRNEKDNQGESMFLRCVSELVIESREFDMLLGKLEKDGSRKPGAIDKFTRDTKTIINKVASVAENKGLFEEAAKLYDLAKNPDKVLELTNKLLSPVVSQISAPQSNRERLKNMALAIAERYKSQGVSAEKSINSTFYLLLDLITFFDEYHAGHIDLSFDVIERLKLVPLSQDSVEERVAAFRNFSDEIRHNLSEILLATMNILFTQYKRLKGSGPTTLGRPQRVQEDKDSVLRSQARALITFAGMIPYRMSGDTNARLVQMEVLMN
T2 sequence (P52948 1-880): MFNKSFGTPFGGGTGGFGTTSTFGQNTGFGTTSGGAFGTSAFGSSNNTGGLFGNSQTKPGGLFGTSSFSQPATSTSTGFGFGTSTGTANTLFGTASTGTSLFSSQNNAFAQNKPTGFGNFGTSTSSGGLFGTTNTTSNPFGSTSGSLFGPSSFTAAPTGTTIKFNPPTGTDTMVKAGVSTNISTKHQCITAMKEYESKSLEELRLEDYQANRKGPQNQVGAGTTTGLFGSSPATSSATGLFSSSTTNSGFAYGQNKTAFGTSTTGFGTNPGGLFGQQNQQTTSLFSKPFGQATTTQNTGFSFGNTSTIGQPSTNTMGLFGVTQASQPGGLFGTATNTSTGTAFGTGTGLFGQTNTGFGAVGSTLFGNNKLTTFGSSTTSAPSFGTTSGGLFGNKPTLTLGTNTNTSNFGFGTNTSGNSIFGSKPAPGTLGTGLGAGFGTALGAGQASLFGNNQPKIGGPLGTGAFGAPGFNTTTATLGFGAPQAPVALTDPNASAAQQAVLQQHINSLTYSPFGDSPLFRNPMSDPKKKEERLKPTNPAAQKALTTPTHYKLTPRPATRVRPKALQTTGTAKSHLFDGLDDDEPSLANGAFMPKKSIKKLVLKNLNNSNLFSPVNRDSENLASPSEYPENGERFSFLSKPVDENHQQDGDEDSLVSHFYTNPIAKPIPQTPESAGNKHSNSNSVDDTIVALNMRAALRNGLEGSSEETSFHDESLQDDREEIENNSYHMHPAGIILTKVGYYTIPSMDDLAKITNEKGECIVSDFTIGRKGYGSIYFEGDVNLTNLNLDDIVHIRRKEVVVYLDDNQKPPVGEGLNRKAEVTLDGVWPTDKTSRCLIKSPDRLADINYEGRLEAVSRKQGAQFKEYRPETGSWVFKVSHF
Sequence of Xenopus Nup93 from egg extract (Xenopus laevis (Q7ZX96 whole entry): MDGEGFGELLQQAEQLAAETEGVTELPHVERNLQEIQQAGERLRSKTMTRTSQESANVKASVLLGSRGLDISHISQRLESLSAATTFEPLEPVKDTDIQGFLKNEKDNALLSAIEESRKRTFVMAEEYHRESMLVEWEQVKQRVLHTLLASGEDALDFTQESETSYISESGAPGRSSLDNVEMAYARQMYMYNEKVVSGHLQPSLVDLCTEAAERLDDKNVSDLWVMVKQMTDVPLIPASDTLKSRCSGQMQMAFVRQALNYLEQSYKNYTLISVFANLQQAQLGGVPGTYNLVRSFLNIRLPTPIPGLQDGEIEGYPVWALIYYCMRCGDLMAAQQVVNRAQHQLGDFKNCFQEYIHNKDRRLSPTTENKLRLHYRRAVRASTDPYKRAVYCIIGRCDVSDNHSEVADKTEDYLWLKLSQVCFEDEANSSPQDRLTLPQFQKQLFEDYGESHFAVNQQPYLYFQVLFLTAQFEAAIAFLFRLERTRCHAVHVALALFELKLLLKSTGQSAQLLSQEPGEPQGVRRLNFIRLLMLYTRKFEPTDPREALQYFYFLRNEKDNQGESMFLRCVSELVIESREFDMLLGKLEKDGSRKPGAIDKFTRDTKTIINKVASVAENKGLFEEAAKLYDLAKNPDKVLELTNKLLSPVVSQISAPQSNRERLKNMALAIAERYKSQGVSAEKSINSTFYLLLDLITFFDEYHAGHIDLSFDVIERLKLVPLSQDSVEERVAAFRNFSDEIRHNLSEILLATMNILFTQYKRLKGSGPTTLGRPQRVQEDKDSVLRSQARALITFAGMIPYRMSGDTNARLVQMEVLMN
Sequence of Xenopus Nup93, target protein of the BLI measurement (Q7ZX96 whole entry): as above
Sequence of human Nup35 in NPCs of HeLa cells (Q8NFH5 whole entry): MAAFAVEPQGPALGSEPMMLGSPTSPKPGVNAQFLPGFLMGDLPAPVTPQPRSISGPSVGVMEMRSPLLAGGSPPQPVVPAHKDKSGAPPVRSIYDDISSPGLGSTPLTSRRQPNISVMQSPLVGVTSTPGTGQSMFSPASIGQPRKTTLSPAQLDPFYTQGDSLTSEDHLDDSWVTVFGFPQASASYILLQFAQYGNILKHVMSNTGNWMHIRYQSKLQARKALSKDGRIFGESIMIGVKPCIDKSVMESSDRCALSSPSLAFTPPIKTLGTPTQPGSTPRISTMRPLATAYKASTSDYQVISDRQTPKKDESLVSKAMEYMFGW
Sequence of human Nup93 from HeLa lysate (Q8N1F7 whole entry): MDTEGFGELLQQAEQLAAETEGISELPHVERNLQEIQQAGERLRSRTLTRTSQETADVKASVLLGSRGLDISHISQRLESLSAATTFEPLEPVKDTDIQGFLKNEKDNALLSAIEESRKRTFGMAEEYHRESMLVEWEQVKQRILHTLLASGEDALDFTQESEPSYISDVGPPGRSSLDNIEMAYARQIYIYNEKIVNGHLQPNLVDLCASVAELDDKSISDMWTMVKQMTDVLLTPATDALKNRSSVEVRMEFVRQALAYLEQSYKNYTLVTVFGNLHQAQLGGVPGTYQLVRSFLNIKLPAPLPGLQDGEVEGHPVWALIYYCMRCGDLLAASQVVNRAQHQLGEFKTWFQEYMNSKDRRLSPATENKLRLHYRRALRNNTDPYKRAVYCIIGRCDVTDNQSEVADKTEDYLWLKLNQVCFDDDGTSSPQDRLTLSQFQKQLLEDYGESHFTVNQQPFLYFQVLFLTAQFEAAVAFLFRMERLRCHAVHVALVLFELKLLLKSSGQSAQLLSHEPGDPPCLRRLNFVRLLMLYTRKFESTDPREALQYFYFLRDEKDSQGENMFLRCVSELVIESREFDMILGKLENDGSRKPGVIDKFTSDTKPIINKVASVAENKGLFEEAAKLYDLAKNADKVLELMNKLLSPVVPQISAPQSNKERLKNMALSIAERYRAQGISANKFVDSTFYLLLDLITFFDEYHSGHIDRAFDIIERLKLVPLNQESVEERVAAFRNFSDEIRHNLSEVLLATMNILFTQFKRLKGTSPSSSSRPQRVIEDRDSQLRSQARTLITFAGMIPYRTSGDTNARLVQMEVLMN

binding result [4]: binds
B5: xhNup93-Nb4i, biotinylated at two ectopic cysteines (VHH)
VHH: QVQLVESGGGVVQTGDSLMLSCTVSGHTIDNWAMGWFRQTPRKQREFVAAIDKRGTGAIYGNSVKGRFTVSRDNAKNMVYLRMNSLKPEDTAVYFCAVDQLNAGLGDVSYDYDYWGQGTQVTVSS

binding result [5]: binds | binding result [6]: binds
B6: (biotin)-Avi-SUMO^Eu1-xhNup93-Nb4i (VHH)
VHH: B5 VHH

binding result (xlNup93(168-820)): binds
B7: xhNup93-Nb4i (VHH)
VHH: B5 VHH

binding result [1]: binds
B8: xNup98-Nb1t (VHH)
VHH: QVQLVESGGGPVEAGGSLRLSCAASGRSFSNSVMAWFRQAPGKEREFLSVLNWSSGRTSIADSVKGRFTMSRDPAKITVYLQMNGLKPEDTAVYYCAASNRGSLYTLDNQNRYEDWGQGTQVTVSS

binding result [7]: binds | binding result [8]: no binding (tested: 35 nM)
B9: xNup98-Nb1t, fluorophore-labelled (VHH)
VHH: B8 VHH

binding result [9]: binds
B10: xhNup35-Nb1t (VHH)
VHH: QVQLVESGGGLVQAGGSLRLSCVGTGNISSAYTMAWYRQAAGKEREVVAGILNGGSTHYADSVKGRFTISRDNAKNTVYLQMNSLQPEDTGVYCCHVVIESTRFVYDHYWGQGTRVTVSS

binding result [10]: binds | binding result [11]: binds
B11: xhNup35-Nb1t, fluorophore-labelled (VHH)
VHH: B10 VHH

The remaining lines, values behind:

B1: xNup93-Nb2t (VHH)
VHH: DVQLVESGGGLVQPGGSLRLSCVASGFTFSRVGMGWVRQAPGKGLEWVSDINASGGTGYADSVKGRFAISRDNAKNTLYLQMNRLKPEDTAVYYCAKMMDTAMIEAGIIKPAGQGTQVTVSS
binding result (xlNup93(168-820)): binds

B2: hNup35(173-248, the RRM domain) (domain or fragment)
chain: DSWVTVFGFPQASASYILLQFAQYGNILKHVMSNTGNWMHIRYQSKLQARKALSKDGRIFGESIMIGVKPCIDKSV
binding result (crystal structure): binds

B3: xhNup98-Nb2i (VHH)
VHH: QVQLVESGGGLAKPGGSLRLSCVATGTFRSMEDVGWYRQAPGKDRELVAEITTLGKVTYADSVKGRFTISRDDAKNAVYLQMSDLKSEDTAVYYCNIEADQTKGIGYVVYPYWGQGTRVTVSS
binding result [1]: binds

B4: (biotin)-Avi-SUMO^Eu1-xhNup98-Nb2i (VHH)
VHH: B3 VHH
binding result [2]: binds | binding result [3]: binds
